Legend:
[1] = molecular target: T1, CD16A endogenously expressed on primary human NK cells (human, UniProt P08637 17-254); test: flow cytometry on primary human NK cells, with against without 10 mg/mL polyclonal human IgG
Procedure: (§1) 4° C., and resuspended in 50 μL/well of diluted antibody constructs. […] After 40-50 minutes' incubation at 37° C., cells were washed 3-times with ice-cold FACS buffer. […] After the final incubation step, cells were washed 2-times with ice-cold FACS buffer, and the cell pellet was resuspended in 50 μL FACS buffer. Fluorescence intensity of >1×10⁴ viable cells was analyzed by flow cytometry and the median fluorescence intensity (MFI) was determined for each sample.
(§2) Equilibrium dissociation constants (KD) of antibody binding were calculated by plotting MFI values and fitting a non-linear regression model for one-site binding to hyperbolic dose-response curves using GraphPad Prism.

[2] = molecular target: T2, human FOLR1 endogenously expressed on tumor cell lines (human, UniProt P15328 25-234); test: flow cytometry on IGROV-1 cells (FOLR1 high) at 37 °C, FITC anti-human IgG detection
T2 construct: whole, on cells; also called FOLR1-positive tumor cell lines; FOLR1+ target cells
T2 sequence (P15328 25-234): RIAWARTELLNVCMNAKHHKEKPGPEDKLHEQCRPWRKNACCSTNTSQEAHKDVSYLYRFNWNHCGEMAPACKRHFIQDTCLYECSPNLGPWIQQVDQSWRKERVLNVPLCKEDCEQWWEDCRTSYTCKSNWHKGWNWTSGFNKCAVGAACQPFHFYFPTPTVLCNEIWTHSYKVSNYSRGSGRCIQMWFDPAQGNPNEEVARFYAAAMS
Procedure: Cells were collected and centrifuged at 400×g, 5 min, 4° C. Cell pellets were resuspended in FACS buffer (PBS (Invitrogen, cat.: 392-0434) containing 2% h.i. FCS (Invitrogen, cat.: 10500-064), and 0.1% sodium azide (Sigma, cat.: S8032)) at 1-5×10⁶ cells/mL. 100 μL/well of the cell suspension were transferred into U-shaped, 96-well micro plates (0.1-0.5×10⁶ cells per well), cells were pelleted at 400×g, 5 min, 4° C., and resuspended in 100 μL/well of serial dilutions of the indicated antibodies in FACS buffer. After 40-50 min incubation at 37° C., cells were washed 3-times with ice-cold FACS buffer. […] After the final incubation step, cells were washed 2-times with ice-cold FACS buffer, and the cell pellet was resuspended in 100 μL FACS buffer. Fluorescence intensities of >1×10⁴ viable cells were analyzed by flow cytometry and the median fluorescence intensity (MFI) was determined for each sample.

[3] = molecular target: T1, CD16A endogenously expressed on primary …; test: flow cytometry on primary human NK cells, biotinylated antibody, 37 C, without IgG, mean of 4
Procedure: as §1, §2

[4] = molecular target: T2, human FOLR1 endogenously expressed on …; test: cell-based or functional assay
[5] = molecular target: T1, CD16A endogenously expressed on primary …; test: flow cytometry on primary human NK cells, biotinylated antibody, 37 C, with 10 mg/mL polyclonal human IgG as competitor, mean of 4
Procedure: as §1, §2

[6] = molecular target: T1, CD16A endogenously expressed on primary …; test: flow cytometry on primary human NK cells at 37 °C, biotinylated antibody, streptavidin-FITC, without polyclonal human IgG
Procedure: (§3) Frozen NK cells were thawed, and viability was determined with trypan blue (Sigma-Aldrich, cat.: T8154). Cells have been centrifuged at 400×g, 5 min, 4° C. Cell pellets were resuspended in FACS buffer PBS (Invitrogen, cat.: 392-0434) containing 2% h.i. FCS (Invitrogen, cat.: 10500-064), and 0.1% sodium azide (Sigma, cat.: S8032) at 2×10⁶ cells/mL. 100 μL/well of the cell suspension were transferred into U-shaped 96 well plates, cells were pelleted at 400×g, 5 min. 4° C., and resuspended in 50 μL/well of diluted antibody constructs. […] After 40-50 minutes' incubation at 37° C., cells were washed 3-times with ice-cold FACS buffer. […] After the final incubation step, cells were washed 2-times with ice-cold FACS buffer, and the cell pellet was resuspended in 50 μL FACS buffer. Fluorescence intensity of >1×10⁴ viable cells was analyzed by flow cytometry and the median fluorescence intensity (MFI) was determined for each sample.

[7] = molecular target: T1, CD16A endogenously expressed on primary …; test: flow cytometry on primary human NK cells at 37 °C, biotinylated antibody, streptavidin-FITC, in the presence of 10 mg/mL polyclonal human IgG (competitor)
Procedure: as §3

[8] = molecular target: T3, recombinant human CD16A^158V, biotinylated, mFc.silenced/Avi-tagged (human, UniProt P08637 17-208, biotinylated (Avi-tag)); test: SPR (Biacore T200), 37 °C, multivalent multi-cycle kinetics, biotin-captured antigen as ligand, construct as analyte, 1:1 binding model, n=3
T3 construct: also called CD16^158V
T3 sequence (P08637 17-208 F176V limits assumed): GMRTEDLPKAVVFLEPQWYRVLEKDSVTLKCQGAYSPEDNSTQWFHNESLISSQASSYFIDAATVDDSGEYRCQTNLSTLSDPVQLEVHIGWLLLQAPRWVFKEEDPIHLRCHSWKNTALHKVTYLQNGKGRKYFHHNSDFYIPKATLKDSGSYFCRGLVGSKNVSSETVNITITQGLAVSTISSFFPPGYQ
Procedure: (§4) For multivalent interaction analysis, biotinylated-mFc.silenced/Avi-tagged antigens were captured (FC2, FC4) to a density of 120-200RU, before CD123×CD16A ICE were injected (concentration: 0-60 nM) for 240s at a flow rate of 40 μL/min and complex was left to dissociate for 300s at the same flow rate.
(§5) After each cycle, chip surfaces were regenerated with 6M guanidine-HCl, 0.25M NaOH and reloaded with Biotin Capture reagent. Interaction kinetics were determined by fitting data from multi-cycle kinetics experiments to a simple 1:1 interaction model using the local data analysis option (Rmax and RI) available within Biacore T200 Evaluation Software (v3.1). Referencing was done against a flow cell without captured ligand (Fc2-Fc1, Fc4-Fc3).

[9] = molecular target: recombinant human CD16A^158F, biotinylated, mFc.silenced/Avi-tagged (human, UniProt P08637 17-208, biotinylated (Avi-tag)); test: as above
Chain of recombinant human CD16A^158F, biotinylated, mFc.silenced/Avi-tagged (P08637 17-208): as the sequence (P08637 17-208 F176V limits assumed) above, with V160F counted along it
Procedure: as §4, §5

[10] = molecular target: recombinant cynomolgus CD16, biotinylated, mFc.silenced/Avi-tagged (cynomolgus, UniProt Q8SPW2 17-208, biotinylated (Avi-tag)); test: as above
Chain of recombinant cynomolgus CD16, biotinylated, mFc.silenced/Avi-tagged (Q8SPW2 17-208): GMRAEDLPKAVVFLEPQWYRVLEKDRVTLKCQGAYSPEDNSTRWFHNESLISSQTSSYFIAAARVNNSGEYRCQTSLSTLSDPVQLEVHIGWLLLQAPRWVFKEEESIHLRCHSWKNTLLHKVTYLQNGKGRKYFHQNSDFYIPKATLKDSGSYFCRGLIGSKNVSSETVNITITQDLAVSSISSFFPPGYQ
Procedure: as §4, §5

T1 sequence (P08637 17-254 limits assumed): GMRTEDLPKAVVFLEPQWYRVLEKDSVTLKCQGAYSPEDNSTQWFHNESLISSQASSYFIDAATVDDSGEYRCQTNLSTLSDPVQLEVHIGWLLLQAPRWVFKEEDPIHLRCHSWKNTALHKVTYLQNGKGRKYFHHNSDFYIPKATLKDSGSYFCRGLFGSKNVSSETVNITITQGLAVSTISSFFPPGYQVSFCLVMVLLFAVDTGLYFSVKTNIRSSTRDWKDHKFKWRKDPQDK

B1: scFv-IgAb_444 (RSV×CD16A) (bispecific antibody)
chain 1: QVTLRESGPALVKPTQTLTLTCTFSGFSLSTAGMSVGWIRQPPGKALEWLADIWWDDKKHYNPSLKDRLTISKDTSKNQVVLKVTNMDPADTATYYCARDMIFNFYFDVWGQGTTVTVSSASTKGPSVFPLAPSSKSTSGGTAALGCLVKDYFPEPVTVSWNSGALTSGVHTFPAVLQSSGLYSLSSVVTVPSSSLGTQTYICNVNHKPSNTKVDKKVEPKSCDKTHTCPPCPAPEFEGGPSVFLFPPKPKDTLMISRTPEVTCVVVAVSHEDPEVKFNWYVDGVEVHNAKTKPREEQYNSTYRVVSVLTVLHQDWLNGKEYKCKVSNKALPAPIEKTISKAKGQPREPQVYTLPPSREEMTKNQVSLTCLVKGFYPSDIAVEWESNGQPENNYKTTPPVLDSDGSFFLYSKLTVDKSRWQQGNVFSCSVMHEALHNHYTQKSLSLSPGGGGGSGGGGSGGGGSGGGGSGGGGSGGGGSSYELTQPLSVSVALGQTARITCGGNNIGSKSVHWYQQKPGQAPVLVIYQDKKRPSGIPERFSGSNSGNTATLTISRAQAGDEADYYCQVWDDYIVLFGCGTKLTVLGGSGGSGGSGGSGGSGGSGGSQVQLVQSGAEVKKPGASVKVSCKASGYTFTNYYMQWVRQAPGQCLEWMGIINPSGGVTSYAQKFQGRVTMTRDTSTSTVYMELSSLRSEDTAVYYCARGSAYYYDFADYWGQGTLVTVSSG
chain 2: DIQMTQSPSTLSASVGDRVTITCSASSRVGYMHWYQQKPGKAPKLLIYDTSKLASGVPSRFSGSGSGTEFTLTISSLQPDDFATYYCFQGSGYPFTFGGGTKVEIKRTVAAPSVFIFPPSDEQLKSGTASVVCLLNNFYPREAKVQWKVDNALQSGNSQESVTEQDSKDSTYSLSSTLTLSKADYEKHKVYACEVTHQGLSSPVTKSFNRGEC
notes: also called RSV/CD16A scFv-IgAb_444; RSV(NIST)×CD16A
fold loss in KD induced by IgG [1]: 5 fold
binding result [2]: no binding (tested: about 500 nM)
Kd [3]: 3.8 nM
Phagocytosis [%], 4 h ADCP, DK-MG cells [4]: 0%
Phagocytosis [%], 4 h ADCP, HCC-78 cells [4]: 0%
Phagocytosis [%], 4 h ADCP, HeLa cells [4]: 0%
Kd [5]: 19.9 nM
EC50 (read off the curve) [6]: ~4 nM
EC50 (read off the curve) [7]: 10 to 20 nM

B2: scFv-IgAb_264 (CD123-2×CD16a2) (bispecific antibody)
chain 1: QVQLVQSGAEVKKPGASVKMSCKASGYTFTDYYMKWVKQAPGQGLEWIGDIIPSNGATFYNQKFKGKATLTVDRSISTAYMHLNRLRSDDTAVYYCTRSHLLRASWFAYWGQGTLVTVSSASTKGPSVFPLAPSSKSTSGGTAALGCLVKDYFPEPVTVSWNSGALTSGVHTFPAVLQSSGLYSLSSVVTVPSSSLGTQTYICNVNHKPSNTKVDKKVEPKSCDKTHTCPPCPAPEFEGGPSVFLFPPKPKDTLMISRTPEVTCVVVAVSHEDPEVKFNWYVDGVEVHNAKTKPREEQYNSTYRVVSVLTVLHQDWLNGKEYKCKVSNKALPAPIEKTISKAKGQPREPQVYTLPPSREEMTKNQVSLTCLVKGFYPSDIAVEWESNGQPENNYKTTPPVLDSDGSFFLYSKLTVDKSRWQQGNVFSCSVMHEALHNHYTQKSLSLSPGGGGGSGGGGSGGGGSGGGGSGGGGSGGGGSSYELTQPLSVSVALGQTARITCGGHNIGSKNVHWYQQKPGQAPVLVIYQDNKRPSGIPERFSGSNSGNTATLTISRAQAGDEADYYCQVWDNYNVLFGCGTKLTVLGGSGGSGGSGGSGGSGGSGGSQVQLVQSGAEVKKPGASVKVSCKASGYTFTSYYMHWVRQAPGQCLEWMGAIEPRYGSTSYAQKFQGRVTMTRDTSTSTVYMELSSLRSEDTAVYYCARGSAYYYDFADYWGQGTLVTVSS
chain 2: not shown
notes: also called scFv-IgAb_264 (CD16a1×CD123-2); CD123-1×CD16a2 scFv-IgAb_264
Kd [8]: 0.43 nM
koff [8]: 0.0027 s⁻¹
kon [8]: 6.3e+06 M⁻¹ s⁻¹
Kd [9]: 0.567 nM
koff [9]: 0.0036 s⁻¹
kon [9]: 6.4e+06 M⁻¹ s⁻¹
Kd [10]: 2.4 nM
koff [10]: 0.013 s⁻¹
kon [10]: 5.2e+06 M⁻¹ s⁻¹
